Article PMC11997821

How the values were obtained:
[1] = biological target: BsaXI S subunit (476-residue specificity subunit of R.M.BsaXI) (Bacillus stearothermophilus); experiment: SEC; Superdex75 column in NEB Diluent B; pooled, separately expressed RM and S subunits after chitin, DEAE, heparin and Source columns
[2] = biological target: BsaXI S subunit (476-residue specificity subunit of R.M.BsaXI) (Bacillus stearothermophilus); experiment: single-particle EM, 2D classification of particles (negative stain and cryo-EM); DNA-free and DNA-bound BsaXI particles, twice selected

stoichiometry N (RM subunits per S subunit) [1]: 2
stoichiometry N (RM subunits per S subunit) [2]: 2
Substance: BsaXI RM subunit (916-residue RM fusion subunit of the Type IIB restriction-modification enzyme R.M.BsaXI)
